# B1: Strep-His-TEV-HaloTag-3C-Xenopus γTuNA (Xenopus Cdk5rap2 aa 56–101), wildtype [Xenopus laevis] / itself (parent)
# chain: MKDFEKQIAELKKENFNLKLRIYFLEEQVQQKCDNSSEDLYRMNIE
# B2: Strep-His-TEV-HaloTag-3C-human γTuNA (human CDK5RAP2 aa 53–98), wildtype [human] / itself (parent)
# chain: SPTRARNMKDFENQITELKKENFNLKLRIYFLEERMQQEFHGPTEH
# Variants of: B1
# Test: size-exclusion chromatography (self-association / dimerization)
# Conditions: with itself; 50 µM (monomer); Superdex 200 increase 10/300 GL; main peak, a minor shoulder near 13.2 mL is also drawn; read off a plot
row,screen value [mL],Variant
1,14.2,chain 1 L18A

# Same assay, conditions: with itself; 50 µM (monomer); Superdex 200 increase 10/300 GL; read off a plot
row,screen value [mL],Variant
1,15,chain 1 I8D L11D
2,13.4,chain 1 F4A

# Second part, the variant before the results:
row,Variant,screen value [mL]
1,chain 1 L18A,14.2
2,chain 1 I8A,13.5
3,chain 1 F16A,13.3
4,chain 1 L11A,14

# Variants of: B2
# Test: as above
# Conditions: with itself; 50 µM (monomer); Superdex 200 increase 10/300 GL; main peak, a minor peak near 12.9 mL is also drawn; read off a plot
row,screen value [mL],Variant
1,15.1,chain 1 F11D I15D L18D

# Same assay, conditions: with itself; 50 µM (monomer); Superdex 200 increase 10/300 GL; read off a plot
row,screen value [mL],Variant
1,15.1,chain 1 I15D L18D
2,15.1,chain 1 I15A L18A

# Same assay, conditions: with itself; 50 µM (monomer); Superdex 200 increase 10/300 GL; main peak, a minor peak near 13.1 mL is also drawn; read off a plot
row,screen value [mL],Variant
1,15,chain 1 F11A I15A L18A L25A

# From PMC9859039, “The conserved centrosomin motif, γTuNA, forms a dimer that directly activates microtubule nucleation by the γ-tubulin ring complex (γTuRC)” (eLife, 2022)
